The series is described as follows: label from the status in PepcDB records.
As to “MGSTQYWDLKSGVCTRIFGGHQGTITCMDLCKNRLVSGGRDCQVKVWDVDTGKCLKTFRHKDPILATRINDTYIVSSCERGLVKVWHIAMAQLVKTLSGHEGAVKCLFFDQWHLLSGSTDGLVMAWSMVGKYERCLMAFKHPKEVLDVSLLFLRVISACADGKIRIYNFFNGNCMKVIKANGRGDPVLSFFIQGNRMVVNTESNVLMFQFEHIKWQYAVEKTKQKKNKEKEEEKEENSLMEILSKCNIQVHSPRESVSSKQTVIQELLPGKPPKSRVLLKPAKFSSAVLIEELQSQGKSKSPRRDADDVEKAQKQGQLETPGKLPSHPKKKSWKIPMSPDQFLLTVSALQHARNSGEFAYPCRPQTEITDVWGPSISYPRKVLNFKGKSIQRAVDRLRLSNPPIDVKRTSIPLEIQKLQPNLKISLHSPRAQSTIPQPMIIRSRFSGSLKGGDQVTSSIERAVCSTGPLTSMQVIKPNRMLAPQVGTATLSLKKERPRIYTALDPFRVNAEFVLLTVKEEKEHQEAKMKEYQARESTGVVDPGKASKAAWIRKIKGLPIDNFTKQGKTAAPELGQNVFI”, the protein production entry was “failed”. As for “MENSTLYIVIAGLWLAVGFGIFLKKLDMPVIIGYICTGTVLAAFFKINDFDLLSDIGEFGIVFLMFMIGIEFNFDKLKSIKQEVLVFGLLQVVLCALIAFLLGYFVLGLSPIFSLVLGMGLSLSSTAIVLKFFEDSKQLSTPMGKSAVGILIFQDIAAIPMLLILTILGSKDSNVNLLILKTFISAGIILVLLLLPGKKGANLILEQAKDTRLPEIFIGTILVIVCSAAGLSHFFGFSMSLGAFIVGMAISKSRYKINVQEEFAQLKNLFLALFFITIGMQINVSFFMEKFFVVIFLLILVMGFKTAIIYALLRFFRDAKTAIKTALSLAQIGEFSFVIFLNSGSHQLFNLQEKKGILGFLHQKNILNIAQNDIHQLLILMVVFSMLATPFILKYLESIAQFILHQKSQENEPAKK”, the entry is “failed”. Under “MNSNANNTPIAIGISQVFPCSYLDGQQEQLLVIQEETLDPILFERLLAIGFRRSGSAIYKPRCPRCSACQPIRVPIQEFVPSKRQKRTLAHNRDLTWRITTEHTETQYALYEKYIRERHFDGPMYPPSKAQYEQFLFCHWLPPTFIEVYDDNRLVAVAVTDTLPNSFSAIYSYFDPDEERRSLGVLLILLQCRLAKLQGKAFLYLGYQIDANRKMSYKRLYRPYQILTHQGWEYSQVCLEHHHHHH” stands “failed”; under “MGSSHHHHHHSSGRENLYFQGSQESIQNKISQCKFSVCPERLQCPLEAIQCPITLEQPEKGIFVKNSDGSDVCTLFDAAAFSRLVGEGLPHPLTREPITASIIVKHEECIYDDTRGNFIIKGN”, “not failed”. Under “MLREPGAADRAAFVELLASPEVHTYLGGPRPRAELERELPGTPERWPGSFVVDLDGEMIGQVLLRRTREHCCPVAVGKVDLGYLFLPRAWGLGYAAEACAAALDWLDCVLPGEPVVLNTQTANTGSMRLAAKLGFTEVERFRAWDAEQWLGLRPPLT” stands “failed”. Consider “MKTEMTNVDISVAVSELQKVINGKLDKAFLVNNQDGKELILKVHIPEIGSREIAIGLGKYKYMTLTEYEREKPRNPPSFVMLLRKHLKNIKITSVAQHNFDRIVIFNFEWNELKYKLIIELFGDGNAILLDSEDKIILPLKIERWSTRKIVPKEIYKFPPQKDLDPKNLDYSLAKKLFIEEFEKEENKDTEVVRIISRTFGLAGVYSEEICLNSEIDKNLKNPKNEEIEKLFEGSKSFFKKVFGELKPKSTLKNGEFVNIDPIDLKIHENLKENEIKHYESFLTALDEYFSRFIMKKEIKQAESKLQKLVKKQERILKSQLDTKDKYEKQSVSNHKRGDLIYANYSLVDEIVSTIKDAREKMDWNGIKNVIKENKTHPILSKIINVNEKNAELTLKLSADYGNGLIEDSVPVDLRKNAFENADIVYQKSKKFKNKVQGVIEALKISEKKLAELKEKEKLDSEVFKEKEEKIKKKERK”, for which the protein production entry is on record as “failed”. Turning to “MEKQSPTALPGTPITDMPAAAETLLALMHAQAEVARLSEREQLFSSLLVSVNAVLWAFDWETQRMIYVSPAYEHIFGRSAGLLLADYSEWRDSIYPDDLNYAERSLSEVIEKGAVEDREYRIIRADGEVRWLSDKCFVSHRADASQRLIVVGIAEDITDKKHLEDELQRLATTDVLTQSSNRRHFFECAQREFELARLNGTPLAFLLLDIDDFKLVNDTYGHQEGDTVLQRIAESGRSALRRGDLFGRIGGEEFAAVFPGCAPEMAMQIAERLQREIQRQNFQANGSTFSITASQGLTNLGPEDQGLEALYGRADAAMYQAKRQGKNQIVLV”, the protein production entry was “failed”.

As for “NSESKSTPKRLHVSNIPFRFRDPDLRQMFGQFGKILDVEIIFNERGSKGFGFVTFENSADADRAREKLHGTVVEGRKIEVNNATARVMTN”, the protein production entry is given as “not failed”.

Consider “MKILVVSGFLGAGKTTFIRTLAERTKKDFAVMENEYGAVNVDGDLLEQTNDLNIWELTEGCICCSMQNDFATSILTIANTVDPEYLIVEPTGVGMLSKIIENIQKIEYERITLLEPLTILDGTMYDRCMFEFSEICEDQIQSAGRILVSKMEYAAENERCSLKQKLIALNPEAEICVSHYTEQGDDWWASLLTSYLDKEIPMKEERELDLENLGLTEASLQSEQELILFLQGVVSGVFGDICRAKGYLPAGNGWLRFDVTDRTYSVTGIDTMPEAKAIFIGRQLKRNWLREVLQKELYVEVSKRAIRPMRKRSEVLEHHHHHH”, for which the protein production result is “failed”. As for “MIGPENCNSVSEPIAYVIILAGGRSSRMGYDKAQVMVDGRRLIDLCLESIASVHAHPIVVSGQDLQLTAAVTQVMEEPAFGGPVAGIAAGMRCCDTKAGLIGVIAVDAPRSGNYLNQLRRVVLTHPEVGVAHAVVEGYDQPLLAVWRYEALTQALHALGSPRNVAAKRLLRSATTPVIAVPVDSSARDYDTVAELSALGRVRLRLEHHHHHH”, the protein production entry is on record as “failed”. As for “MKAGIHPDYKKVVFMDTNTGFKFLSGSTKGSNETVEWEDGNTYPLLKVEISSDSHPFYTGRQKFATADGRVDRFNKKYGLK”, the entry is “failed”; as for “MEANTSSSGTVTGQRFAERRRSLPPGAELRQRLLKQLKELCDQIGKAYSTLVQKAALVIEPADQAVSLEPDTQRQATCITNLSDEGELWTTVYELNLGVQNLLMFIEDIRLLLLTQAQVPGPSVEENGLKTAGKGGCSPTELEGARFSDRLSSSNTHRFLEQLWDRYTP”, “not failed”. For the sequence “MIEYIIGVIGLLLASVQDFRSREIEDYIWIVLAVFGILFAIYSAITLSNYSILINSISGFVICFILGYMMFLSGIGGGDGKILIGLGALVPKFQMPIYTSLGTLLNLNYIPNFPIMVFINGIFFMVFLPFVILFRNILNGARPKTGKEVILMFFGEKMKVKVAKEQKRLIMGQNDKINFFPASDDEDFSKYGDEEEIWVTPQIPLIIPITLSYLVTPIIGDRILDLLIPF”, the protein production entry is on record as “failed”. As for “SKDPAFTALLTTQLQVQREIVNKHNELRKAVSPPASNMLKMEWSREVTTNAQRWANKCTLQHSDPEDRKTSTRCGENLYMSSDPTSWSSAIQSWYDEILDFVYGVGPKSPNAVVGHYTQLVWYSTYQVGCGIAYCPNQDSLKYYYVCQYCPAGNNMNRKNTPYQQGTPCAGCPDDCDKGLCTNSCQYQDLLSNCDSLKNTAGCEHELLKEKCKATCLCENKIY”, the entry is “failed”. Under “MVKHIWDSERAAQLPKGVEELVYRSNLIGSDRTVCNWGGGNTSMKTTEKDFRGREIEVMWVKGSGSDLATMKAHNFSGLKLDDIRPLIKRDQMPDEEMVDYLSHCMIDSKHPRPSIETLLHAFLPYKHVDHTHPDAIISICCADNGKQIAEDIYGNRFVWVPYVRPGFTLSKMIAEGVANNPHAELVLMEKHGLVTWGETSETCYQKTISIIQEAEQYINDRINQHEVFGGKRYQPLPEDKR” stands “not failed”.

For “MERHVPEPTHTLEGWHVLHDFRLLDFARWFSAPLEAREDAWEELKGLVREWRELEEAGQGSYGIYQVVGHKADLLFLNLRPGLDPLLEAEARLSRSAFARYLGRSYSFYSVVELGSQEKPLDPESPYVKPRLTPRVPKSGYVCFYPMNKRRQGQDNWYMLPAKERASLMKAHGETGRKYQGKVMQVISGAQGLDDWEWGVDLFSEDPVQFKKIVYEMRFDEVSARYGEFGPFFVGKYLDEEALRAFLGL”, the protein production result is “not failed”. In the case of “MVEVSQFKDAMAQLASAVHIVTTSGETGQHGFTASAVCSVTDSPPTLLVCINSNARAYEHFVKNRVLMVNTLTAEQSSLSNIFASPLSQEERFSNASWTTLTTGSPMLQDALINFDCEITEIKHVGTHDILICKIVDIHQSNAKNALVYRNRVYHSV”, the protein production result is recorded as “not failed”. Under “MDAAHRHGVPVLGNIFLPPVAYGGQLQWTRDLVQKDATGHYPLAAQLVAVADAYGFDGWFVNAETSGGNTALATDMRGFLQELKALGTAKGQRVTWYDSMTATGSVSWQGALNSQNQAFFQAADSMFVDFRWSKSTLASSGTLAGQLGRSRYELWAGVDVESNGTSTSVNWDAIVPSASAHVVSLGFYRPEWTRNHLPANRTPGDFHAADDLFWTGASLDPAKPNTTASWRAPALRVADRSTVDSLPFATVFNTGHGLKWYEGGEVTSDTAWNHLGLQDRLPSRRWIVRTSGARPSVTFDFADAWRGGSSVLVAGTLGAPATLDLYETRLPVGSSETVVELTHRTDAGSAQIELAVATAEPSAPGQAPSYTYFPVSSGDGWGTSTVRLTGLSGTVRTLAVRLTGSGSPVRWRLGALAVKNAPAEPAAPTGLRVTDADGGSLRFSWQPAAGEVRHYELHRVLADGTRRFLGGTCQCAYYVAGLAAEQGESAARFELRAVGELYTESTATTTTHPW” stands “failed”; under “MTKILYMVVPCYNEELVLDETSERLKAKYEQLISNNIISPKSRVVYVNDGSKDKTWEKIQEKHNENPMFSGINLSRNRGHQNALLAGLMTVRNLADCVISMDADLQDDINAIDEMLEKFENENCDIVYGVRDNRDTDTVFKRRTAGAFYKLMQGLGSQSVPNHADFRLMSRRALDGLAQFPEQNLFLRGMVPLVGYKSDIVYYKRGERFAGESKYPLKKMISFALDGITSTSAAPMRLIFWIGLIWFLLAIVGAIYIIARHFINGSDVAGWASTMLAIIGFGGANLLALGVIGEYIGKIFLEVKQRPRYLIEDFINED”, “failed”; under “MGNFSLFSSFNPEGQHDDVANRWRSPTPMRYIIPNIITILAICAGMSSIRLAFEHRYEAAILMVLLAAILDGADGRIARLMDGSSSFGAQMDSLADVINFGVAPSLIVYSFVLNQAHQVGWIAGLVYCVACCLRLARFNVMLDNTDIPKWQGNYFVGVPAPAGALLLLLPMYLGALGLVPSWSWALFFSLYTVIIAFLLVSRLPVWNGKTINQNLRRDIVVPCMLGIVIYVGFLATYTWHTLLITAVSYMIFLPCSFVAYNKRAALEEKKANIKTLSSS”, “failed”.

Turning to “MRIGMRLLLGYFLLVAVAAWFVLAIFVKEVKPGVRRATEGTLIDTATLLAELARPDLLSGDPTHGQLAQAFNQLQHRPFRANIGGINKVRNEYHVYMTDAHGKVLFDSANKAVGQDYSRWNDVWLTLRGQYGARSTLQNPADPESSVMYVAAPIMGGSRLIGVLSVGKPNAAMAPVIKRSERRILWASAILLGIALVIGAGMVWWINRSIARLTRYADSVTDNKPVPLPDLGSSELRKLAQALESMRVKLEGKNYIEQYVYALTHELKSPLAAIRGAAEILREGPPPEVVARFTDNILTQNARMQALVETLLRQARLENRQEVVLTAVDVAALFRRVSEARTVQLAEKNITLHVMPTEVNVAAEPALLDQALGNLLDNAIDFTPESGCITLSAEVDQEHVTLKVLDTGSGIPDYALSRIFERFYSLPRANGQKSSGLGLAFVSEVARLFNGEVTLRNVQEGGVLASLRLHRHFT”, the protein production entry is “failed”.

(Values after a protein production outcome set (Wang et al. 2014).)
